Test results reported in the supplement of paper PMC10567573.

B1: VTI1B (parent)
chain: ANETLAEMEEELRYAPLSFRNPMM
B2: FANCE (parent)
chain: AQVLMLGQILELPWKEETFLVLQS

Variants of: B1
Test: protein stability index of a GFP-peptide fusion (GPS, HEK-293T) (PSI 1-6); higher = more stable
Conditions: c terminus: a fixed tail appended
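Further: lentivirally expressed fusions sorted by FACS into six bins by GFP to DsRed ratio, PSI derived from sequencing read proportions per bin multiplied by bin number.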

Variant | protein stability index
E3F | 1.96
E3P | 2.26
E3V | 2.13
E3N | 2.43
E3K | 2.85
E3Q | 2.53
E3W | 2.29
E3S | 2.27
E3A | 2.18
E3Y | 1.94
E3I | 2.1
E3G | 2.51
E3C | 2.01
E3H | 2.43
E3D | 2.97
E3L | 1.38
E3T | 2.01
E3M | 2.1
N2P | 2.52
N2I | 2.53
N2C | 2.13
N2W | 1.06
N2T | 2.19

Variant | protein stability index
N2L | 2.58
N2A | 2.91
N2Q | 2.27
N2S | 1.94
N2R | 1.26
N2H | 2.9
N2G | 2.01
N2Y | 2.05
A1R | 1.46
A1H | 2.16
A1P | 2.37
A1M | 2.65
A1V | 1.34
A1S | 2.49
A1Q | 1.92
A1I | 1.91
A1D | 2.69
A1G | 3.02
A1N | 2.27
A1E | 2.72
A1C | 2.39
A1L | 2.14
A1T | 2.36

Variant | protein stability index
A1F | 1.81
A1W | 2.82
A1K | 2.04
A1Y | 2.54
E7C | 2.01
E7D | 2.69
E7A | 2.85
E7F | 2.1
E7H | 2.2
E7G | 1.9
T4D | 2.33
T4L | 2.47
T4A | 2.15
T4C | 1.69
T4P | 2.41
T4I | 2.4
T4F | 2.12
T4G | 2.39
T4K | 2.72
T4Y | 1.23
T4Q | 2.54
T4R | 1.99
T4M | 2.07

Variant | protein stability index
T4N | 2.79
T4S | 2.58
T4E | 3.26
T4W | 1.99
T4V | 1.9
T4H | 1.83
A6M | 2.86
A6P | 2.51
A6R | 2.67
A6I | 1.85
A6L | 1.88
A6F | 3.33
A6D | 3.76
A6N | 2.75
A6H | 2.4
A6T | 1.79
A6G | 2.17
A6K | 2.78
A6V | 2.16
A6C | 2.12
A6E | 2.77
A6S | 2.73
A6Y | 2.18

Variant | protein stability index
A6Q | 2.79
A6W | 2.05
L5N | 3.05
L5C | 2.69
L5F | 2.96
L5E | 3.32
L5R | 2.14
L5G | 2.58
L5W | 2.01
L5S | 2.96
L5I | 2.16
L5P | 2.73
L5A | 2.7
L5H | 3.14
L5V | 2.78
L5K | 2.16
L5T | 3.01
L5Y | 2.4
L5D | 3.62
L5Q | 2.86

Variants of: B2
Test: as above
Conditions: c terminus: a fixed tail appended

Variant | protein stability index
L4P | 2.18
L4Y | 2.82
L4W | 2.28
L4E | 3.28
L4K | 2.13
L4Q | 2.4
L4A | 2.02
L4R | 2.68
Q2G | 2.21
Q2P | 1.55
Q2Y | 1.82
Q2N | 3.14
Q2H | 2.69
Q2K | 2.02
Q2F | 1.72
Q2D | 2
Q2A | 2.05
Q2T | 3.45
E11I | 1.47
E11V | 3.41
E11G | 2.17
E11D | 3.64
E11C | 5.4
E11T | 2.47
E11F | 3.3

Variant | protein stability index
E11A | 4.02
E11K | 2.65
E11L | 1.81
A1K | 1.56
A1E | 2.43
A1W | 2.62
A1T | 4.61
A1G | 2.51
A1I | 3.1
A1R | 1.83
A1L | 3.15
A1M | 3.16
A1D | 1.77
A1H | 1.25
L10M | 2.01
L10S | 3
L10D | 1.78
L10R | 3.13
L10Y | 4.15
L10K | 2.04
L10H | 3.55
L10T | 2.28
L10E | 1.94
L6I | 3.28
L6S | 2.7

Variant | protein stability index
L6D | 2.3
L6A | 1.48
L6W | 2.46
L6G | 2.17
L6C | 3.67
L6T | 2.23
L6K | 3.18
L6F | 2.61
L6Q | 1.63
L6Y | 3.4
L6E | 1.44
L22F | 2.29
L22H | 2.08
L22R | 1.63
L22Y | 2.56
L22N | 1.47
L22M | 2.5
L22G | 3.21
Q23C | 4.36
Q23F | 1.91
Q23V | 2
Q23G | 2.42
Q23N | 2.44
Q23W | 3.42
Q23I | 2.18

Variant | protein stability index
Q23Y | 3.54
V21A | 3.08
V21F | 2.56
V21N | 2.3
V21T | 3.45
V21G | 3.02
V21R | 3.15
V21S | 2.05
V21C | 3.25
V21Y | 3.3
V21Q | 2.54
V21I | 2.06
E17R | 1.48
E17F | 1.89
E17G | 4.35
E17A | 2.43
E17H | 3.21
E17K | 3.12
E17M | 2.08
E17D | 3.79
K15F | 2.52
K15S | 2.58
K15P | 4.32
K15N | 1.94
K15E | 2.32

Variant | protein stability index
K15M | 2.91
K15W | 2.14
K15L | 2.82
K15Y | 5.17
L20E | 2.24
L20R | 2.61
L20Y | 3.73
L20P | 1.94
L20C | 1.48
L20G | 1.81
L20N | 2.56
L20D | 1.6
L20T | 1.76
P13K | 2.57
P13H | 2.19
P13Q | 2.39
P13L | 2.2
P13N | 3.19
P13F | 3.35
P13C | 4.64
P13A | 5.32
E16F | 4.03
E16A | 3.98
E16N | 2.23
E16Q | 3.56

Variant | protein stability index
E16K | 2.78
E16V | 3.46
E16H | 3.11
E16D | 1.67
T18N | 4.29
T18Y | 2.29
T18M | 2.92
T18L | 2.16
T18P | 1.79
T18G | 3.68
L12F | 2.48
L12T | 2.91
L12K | 2.57
L12C | 3.49
L12I | 2.49
L12A | 3.6
L12D | 2.26
L12R | 3.1
L12G | 3.1
L12M | 3.18
L12Y | 2.6
L12N | 1.94
Q8E | 1.35
Q8W | 2.25
Q8L | 3.68

Variant | protein stability index
Q8F | 2.51
Q8I | 4.26
Q8R | 2.63
Q8V | 3.43
Q8A | 2.48
F19C | 1.54
F19Y | 2.24
F19A | 1.77
F19S | 1.75
F19K | 1.53
F19W | 1.88
F19R | 2.1
M5D | 1.95
M5S | 1.68
M5T | 1.72
M5G | 1.05
M5P | 1.79
M5K | 1.8
M5A | 2.24
M5Q | 1.76
M5W | 2.56
M5V | 3.14
V3G | 1.85
V3M | 2.09
V3F | 3.46

Variant | protein stability index
V3H | 2.45
V3E | 1.82
V3K | 1.32
V3Y | 2.82
V3Q | 1.72
V3L | 3.37
V3R | 2.92
V3T | 2.01
V3S | 1.95
G7P | 2.51
G7D | 2.12
G7N | 2.85
G7I | 3.43
G7V | 2.8
G7R | 4.09
G7W | 3.13
G7Q | 2.19
G7C | 2.25
W14H | 3.52
W14R | 4.06
W14N | 3.44
W14D | 1.58
W14C | 2.55
W14T | 2.08
W14G | 2.07

Variant | protein stability index
W14I | 2.95
W14Y | 2.51
S24W | 3.86
S24Q | 1.69
S24A | 1.88
S24F | 2.67
S24G | 2.41
S24I | 5.17
S24L | 3.04
S24Y | 2.4
S24T | 2.51
I9C | 2.36
I9G | 1.73
I9T | 2.91
I9F | 3.22
I9R | 2.46
I9D | 2.85
I9M | 2.82
I9L | 3.3
I9P | 2.75
I9S | 2.09
I9K | 1.6
